# According to article PMC2705800, “Nucleocytoplasmic Shuttling of the TACC Protein Mia1p/Alp7p Is Required for Remodeling of Microtubule Arrays during the Cell Cycle” (PLoS ONE, 2009):
# B1: Alp14p-13myc (natural protein, S. pombe, UniProt O94534 1-809, looked up)
# chain: MSQDQEEDYSKLPLESRIVHKVWKVRLSAYEECSKSFSLSADGSDNCFELWNNQSELWKSVLTDSNVAAQEAGTAAFVAYCRFSDPSHLLKAREISVLSISEKCLTSPRAGTRENALEALMLLVEADSAAPVIESIIPSLSARSPKVIASNVAAIASLVEQFGAKVIPSKMIIPHISNLFGHADKNVRKEASRLTVNIYRWTGDPLKDLLFKDLRPVQTKELESLFAELPTEPPKQTRFLKSQQPTSEPNVETQVEEQPALENEESEPEPSDDQFDLVEEVDVLPNVDPNLETLMASSKWKDRKEALDKLLPVLSQPKIKDNDFFNLVAILTKSVSKDANIMVVINAAHCIQAMAKGLRSNFSKYASTSINALLERSKEKKANVIESLSSAMDAVLATSSLDDLAELIASFAGNKNPQIKSSCFSLFSRSFSNMTSLPSKFTVDTCAKACVPGVSDTFEPVRSAAAEALGVLMKLVGERAINQYLSPLDDIRKSKIRSFYETATVKAKAPTKKSKVKPSKQEESKVVVPSNAKAVKKSVVPSSPVVPSPRKATNKSLSMDVSKGNAFENGPLLPRPTTRPVSRGLSRGTSSSLQQKVKASTPLNSGALNETVQNLKNMELDDPAPQPAKHSRVDRYEHPKVLEDNDSTISSLESLKRENEELREQLKVEHEENISMQKQLSELKGELNTLRSARKASPIGDRKPAFMRRANTDFLELSTSPSFQRSVREFEPTRPKLYSSIDVNQRSPLASAKTNGNFTFHAELPRSPFSSRANNINPDWTKAIDLAAKLKQKITEMKQTDQRHQGLIH
# notes: Alp14p, TOG protein of Schizosaccharomyces pombe, partner of Mia1p/Alp7p; also called Alp14p-myc; Alp14p/TOG; source: S. pombe mia1Δ cells expressing Alp14p-13myc, total cell lysate
# Target: T1, MBP-Mia1p-MutNES4 (S. pombe, UniProt Q9URY2 1-474, L461A (AVAAMDQANA; Leu/Ile residues 461, 463, 468 and 470) | I463A (AVAAMDQANA; …)
# T1 construct: Cloned into the pAD2a vector (MBP upstream of the multiple cloning site), as m1; also called Mia1-MutNES4; NES mutant version of Mia1p; source: E. coli BL21 (DE3) carrying the pG-KJE8 chaperone plasmid; not shown: MBP, N-terminal, kept
# T1 sequence (looked up): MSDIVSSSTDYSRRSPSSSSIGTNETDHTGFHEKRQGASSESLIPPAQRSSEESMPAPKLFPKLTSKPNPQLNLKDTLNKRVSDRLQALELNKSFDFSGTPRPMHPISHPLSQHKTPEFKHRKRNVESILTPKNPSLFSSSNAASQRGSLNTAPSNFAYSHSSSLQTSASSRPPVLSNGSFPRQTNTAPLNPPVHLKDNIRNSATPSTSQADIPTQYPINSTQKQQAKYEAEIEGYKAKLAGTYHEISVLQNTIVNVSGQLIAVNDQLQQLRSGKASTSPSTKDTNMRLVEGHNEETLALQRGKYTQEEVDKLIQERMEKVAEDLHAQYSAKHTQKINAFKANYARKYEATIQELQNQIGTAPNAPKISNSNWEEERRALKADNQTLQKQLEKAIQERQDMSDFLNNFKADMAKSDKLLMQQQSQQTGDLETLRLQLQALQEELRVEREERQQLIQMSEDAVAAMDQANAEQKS
# Assay: pull-down; MBP fusion held on amylose resin, incubated 1 hour at 4°C with soluble total lysate of Alp14p-13myc expressing mia1Δ S. pombe cells; Buffer A (20 mM Tris-HCl pH 7.4, 400 mM NaCl, 1 mM EDTA, 10 mM β-mercaptoethanol); washed 3 times; Alp14p-myc detected with anti-myc antibody, MBP proteins by Coomassie
# Conditions: one partner purified
binder,measurement,value
B1,"ratio of Alp14p-myc pulled down, against MBP-Mia1p",0.26 ratio to MBP-Mia1p
